From patent publication US20210139579A1 (published 2021) come the findings set out here.

Where a chain is given by its changes, count along the chain named.

The target in this experiment is hFc-hROR1 (fusion protein of the extracellular domain of human ROR1 and the Fc domain of human IgG1) (human, UniProt P01857 99-330 = IgG part). Kind of experiment: SPR. For orientation: In SPR one partner is held on a chip, and binding of the other changes the refractive index at the surface.
Chain of hFc-hROR1 (fusion protein of the extracellular domain of human ROR1 and the Fc domain of human IgG1) (P01857 other isoform, or with tags, fused parts or gaps): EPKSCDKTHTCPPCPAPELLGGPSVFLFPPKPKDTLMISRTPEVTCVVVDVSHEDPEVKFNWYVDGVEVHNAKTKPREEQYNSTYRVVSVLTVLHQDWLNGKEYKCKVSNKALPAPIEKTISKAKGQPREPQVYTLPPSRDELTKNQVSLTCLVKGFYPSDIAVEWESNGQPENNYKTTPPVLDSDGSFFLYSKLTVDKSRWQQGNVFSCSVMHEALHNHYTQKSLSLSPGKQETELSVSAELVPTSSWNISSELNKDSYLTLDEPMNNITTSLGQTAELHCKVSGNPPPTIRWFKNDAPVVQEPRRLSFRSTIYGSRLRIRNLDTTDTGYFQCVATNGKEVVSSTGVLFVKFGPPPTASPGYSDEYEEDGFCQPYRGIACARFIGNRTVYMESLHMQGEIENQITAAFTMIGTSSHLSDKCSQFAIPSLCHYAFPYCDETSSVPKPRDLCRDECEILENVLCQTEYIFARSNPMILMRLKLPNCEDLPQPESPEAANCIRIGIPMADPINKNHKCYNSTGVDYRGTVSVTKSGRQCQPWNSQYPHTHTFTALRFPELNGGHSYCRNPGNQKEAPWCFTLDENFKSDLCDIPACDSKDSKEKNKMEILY

B1: XBR1-402 chimeric rabbit/human Fab (Fab, V domains shown)
VH: QEQQKESGGGLFKPTDTLTLTCTASGFDISSYYMSWVRQAPGNGLEWIGAIGISGNAYYASWAKSRSTITRNTNLNTVTLKMTSLTAADTATYFCARDHPTYGMDLWGPGTLVTVSS
VL: SYELTQLPSVSVSLGQTARITCEGNNIGSKAVHWYQQKPGLAPGLLIYDDDERPSGVPDRFSGSNSGDTATLTISGAQAGDEADYYCQVWDSSAYVFGGGTQLTVTG
For orientation: Kd means the equilibrium constant for the complex coming apart. The low end stands for a tighter complex, the high end for a looser complex. The molecule B1 registered a Kd of 5.81 nM.

B2: ERR1-403 chimeric rabbit/human Fab (Fab, V domains shown)
VH: QEQLKESGRGLVQPGGSLKLSCKASGFDFSGWYMTWVRQAPGKGLEWIGTIGTTKGRTYYASWVNGRFTISSDNAQNTVDLQMNSLTAADRATYFCVRGSDYFDLWGPGTLVTISS
VL: SYELTQLPSVSVSLGQTARITCGGNSIGSKAVNWYQQKPGLAPGLLIYDDDERPSGVPARFSGSNSGDTATLTISGAQAGDEADYYCQLWDSSAGAYVFGGGTQLTVTG
B2 came in with a Kd of 41.6 nM.

B3: ERR1-TOP43 chimeric rabbit/human Fab (Fab, V domains shown)
VH: QSLEESGGRLVTPGTPLTLTCTVSGFSLSSYWMSWVRQAPGKGLEWIGAIYGSGNTYYASWAKGRFTISKTSTTVDLKITSPTTEDTATYFCARDVHSTATDLWGPGTLVTISS
VL: B2 VL with S26N, D49N, A59D
B3 showed a Kd of 1.11 nM.

B4: ERR1-301 chimeric rabbit/human Fab (Fab, V domains shown)
VH: QEQLEESGGGLVTPGGSLTLTCTASGFTISTYHMSWVRQAPGKGLEWIGSIYAGSGSTYYASWVNGRFTISSNTTQNTVSLQMNSLTVADTATYFCARDHPSYGMDLWGPGTLVTVSS
VL: B2 VL with A59D, G63A, G80E, G95V
Turning to B4, the Kd came to 118 nM.
